Sequences and labels used below:
T1: Nrp1 (Nrp1-b1b2) / VEGF-A binding (Homo sapiens, UniProt O14786)
T1 sequence (O14786 274-586): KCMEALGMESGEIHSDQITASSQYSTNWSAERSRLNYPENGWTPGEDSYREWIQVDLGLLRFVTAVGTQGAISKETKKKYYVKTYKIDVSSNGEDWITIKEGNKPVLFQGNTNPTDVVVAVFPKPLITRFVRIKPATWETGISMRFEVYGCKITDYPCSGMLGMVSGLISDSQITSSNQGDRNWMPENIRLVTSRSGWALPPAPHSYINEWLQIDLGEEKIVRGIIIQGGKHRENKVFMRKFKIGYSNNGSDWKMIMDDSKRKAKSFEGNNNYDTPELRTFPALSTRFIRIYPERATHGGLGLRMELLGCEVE

T2: Nrp1-b1b2 (residue 274 to 586) (UniProt O14786 274-586)
T2 sequence (looked up): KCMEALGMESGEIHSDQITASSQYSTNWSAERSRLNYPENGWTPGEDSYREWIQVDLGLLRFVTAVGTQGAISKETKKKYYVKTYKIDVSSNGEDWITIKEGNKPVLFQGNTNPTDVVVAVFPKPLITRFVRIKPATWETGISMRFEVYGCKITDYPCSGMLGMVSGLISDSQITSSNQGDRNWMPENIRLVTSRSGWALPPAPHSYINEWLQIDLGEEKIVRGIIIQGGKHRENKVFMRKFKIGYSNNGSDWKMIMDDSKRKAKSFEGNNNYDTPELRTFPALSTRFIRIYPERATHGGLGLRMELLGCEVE

B1: Sema3A.3, furin processed variant of the Sema3A C-terminal domain (peptide)
chain: NTMDEFCEQVWKRDRKQRRQRPGHTPGNSNKWKHLQENKKGRNRRTHEFERAPR
B2: Sema3A.1, shortest furin processed variant of the Sema3A C-terminal domain (peptide)
chain: NTMDEFCEQVWKRDRKQR
B3: furin-processed C-terminal domain of Sema3F (C-furSema), homodimeric (peptide)
chain: GLIHQYCQGYWRHVPPSPREAPGAPRSPEPDQKKPRNRR
modifications: also: homodimer
B4: C-furSema R779A (peptide)
chain: GLIHQYCQGYWRHVPPSPREAPGAPRSPEPDQKKPRNRA
modifications: also: homodimer, intermolecular disulfide Cys7-Cys7
B5: monomeric C-furSema^Mon (peptide)
chain: GLIHQYSQGYWRHVPPSPREAPGAPRSPEPDQKKPRNRR
B6: Sema3A.2, furin processed variant of the Sema3A C-terminal domain (peptide)
chain: NTMDEFCEQVWKRDRKQRRQRPGHTPGNSNKWKHLQENKKGRNRR
B7: ΔN-C-furSema (peptide)
chain: CQGYWRHVPPSPREAPGAPRSPEPDQKKPRNRR

Several values for one entry are separate records, joined by “and”; a condition that tells them apart may be missing. Identical values can stand only once. Bridges are numbered along the chain shown (N, C = ends). Roman numbers before positions name the chains, in order. Where no end group is shown, it is not given here.

The first test has as its target T1, Nrp1 (Nrp1-b1b2) / VEGF-A binding. As to the kind of experiment: Plate-based inhibition of AP-VEGF-A binding to Nrp1. To be noted: comparison of IC50 values, in words.
As for “I: CQGYWRHVPPSPREAPGAPRSPEPDQKKPRNRR-OH / II: CQGYWRHVPPSPREAPGAPRSPEPDQKKPRNRR-OH (disulfide I:1-II:1) [ΔN-C-furSema]”, the “potency relative to C-furSema in inhibiting VEGF-A binding to Nrp1” value was “approximately five-fold less potent”.

The target of the next test is T2, Nrp1-b1b2 (residue 274 to 586). The experiment in a line: plate-based competition assay with alkaline phosphatase fused ligand.
Settings: not given
Regarding B1, the IC50 is 27 nM.
With B2, the IC50 was determined as 1100 nM.
Still for that read-out and setting: next, B3: 25 nM and 24 nM.
With B4, the IC50 was 4500 nM.
On to B5, for which the IC50 stood at 1300 nM.
In the case of B6, the IC50 stood at 45 nM. This IC50 lies about 29-fold lower than the previous one.
B7 came in with an IC50 of 111 nM.

Values taken from article PMC3873856 (Biochemistry, 2013).
